According to paper PMC8080463:

T1: CRP (UniProt P02741 19-224)
T1 sequence: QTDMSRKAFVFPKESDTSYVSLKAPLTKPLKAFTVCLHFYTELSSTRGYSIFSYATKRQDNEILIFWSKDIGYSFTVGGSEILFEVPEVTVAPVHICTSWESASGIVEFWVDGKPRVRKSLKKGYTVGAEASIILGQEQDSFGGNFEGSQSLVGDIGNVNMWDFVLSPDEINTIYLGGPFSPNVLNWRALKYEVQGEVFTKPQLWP

T2: PLGF (Homo sapiens, UniProt P49763 19-141+214-221, internal_change)
T2 sequence: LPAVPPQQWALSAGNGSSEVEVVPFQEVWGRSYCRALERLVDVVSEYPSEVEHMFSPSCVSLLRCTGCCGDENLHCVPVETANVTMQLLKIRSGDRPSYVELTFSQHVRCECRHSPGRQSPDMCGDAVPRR


What follows are binders tested against T1, CRP (assay: SPR).
GGGATCGTGGAGTTCTGGGTAGATGGGAAGCCCAGGG (ssDNA) [CRP-PQS1]: no binding.

What follows are binders tested against T2, PLGF (assay: SPR).
GGGCGCCGAGGGGCAGGCGGGTCCCGGGG (structured_DNA) [PLGF-PQS1]: no binding. GGGCGGGTGTCCCGGGTGTCGGG (structured_DNA) [PLGF-PQS4]: no binding. GGGAGGGAGGGAGGG (structured_DNA) [PLGF-PQS2]: no binding. GGGCCTCGCGGGCCAGTCGGGCGTCGCGGG (structured_DNA) [PLGF-PQS3]: no binding.

These binders were tested against HGF (UniProt P14210;P14210 32-494;495-728) (assay: SPR).
HGF, sequence (P14210 32-494, chain 1 of 2): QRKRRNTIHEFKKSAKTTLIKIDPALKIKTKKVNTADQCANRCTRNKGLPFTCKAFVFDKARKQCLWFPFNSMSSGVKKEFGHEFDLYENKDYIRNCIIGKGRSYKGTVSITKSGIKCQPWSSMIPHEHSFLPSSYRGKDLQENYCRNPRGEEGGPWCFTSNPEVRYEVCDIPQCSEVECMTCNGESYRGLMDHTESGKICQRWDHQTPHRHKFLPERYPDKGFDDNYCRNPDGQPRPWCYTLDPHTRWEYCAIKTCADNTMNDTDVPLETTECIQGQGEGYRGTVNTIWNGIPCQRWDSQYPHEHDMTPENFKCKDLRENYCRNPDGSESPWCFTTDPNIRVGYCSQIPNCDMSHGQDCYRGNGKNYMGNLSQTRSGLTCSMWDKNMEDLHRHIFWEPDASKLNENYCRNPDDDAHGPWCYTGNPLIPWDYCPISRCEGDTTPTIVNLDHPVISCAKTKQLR
HGF, sequence (P14210 495-728, chain 2 of 2): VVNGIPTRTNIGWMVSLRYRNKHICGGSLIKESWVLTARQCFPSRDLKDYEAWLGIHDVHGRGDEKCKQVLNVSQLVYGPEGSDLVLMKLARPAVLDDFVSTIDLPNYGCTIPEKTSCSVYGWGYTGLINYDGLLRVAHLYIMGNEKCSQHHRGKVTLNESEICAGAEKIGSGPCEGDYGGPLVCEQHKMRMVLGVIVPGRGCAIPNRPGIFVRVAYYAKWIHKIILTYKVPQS
GGGCTGGCAGGAGTTTGG (ssDNA) [HGF-PQS4]: no binding. GGAAAGGAGGGGGCTGG (structured_DNA) [HGF-PQS9]: no binding. GGACGGGCTGGCGG (ssDNA) [HGF-PQS5]: no binding. GGAAGGGAGGAGCAAGG (structured_DNA) [HGF-PQS6]: no binding.

These binders were tested against T1, CRP (assay: EMSA).
GGGGACTGTTGTGGGGTGGGGGGAGGGGGG (ssDNA) [CRP-PQS2]: binds.

Each binder was assayed against Annexin 2 (UniProt P07355 2-339) (assay: EMSA).
Annexin 2, sequence (P07355 2-339): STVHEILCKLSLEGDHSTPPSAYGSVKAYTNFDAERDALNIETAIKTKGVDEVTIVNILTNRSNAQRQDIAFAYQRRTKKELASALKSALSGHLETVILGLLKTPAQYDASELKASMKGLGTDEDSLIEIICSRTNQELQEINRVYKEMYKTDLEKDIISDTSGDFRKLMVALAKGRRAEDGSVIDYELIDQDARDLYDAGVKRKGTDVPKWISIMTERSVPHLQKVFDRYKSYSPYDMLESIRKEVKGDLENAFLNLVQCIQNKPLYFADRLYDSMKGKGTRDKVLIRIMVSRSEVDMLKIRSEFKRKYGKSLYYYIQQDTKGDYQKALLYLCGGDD
GGGCCGGGAGGGTGCAGGG (structured_DNA) [Annexin2-PQS7]: binds. GGCGCCTGGCGCGTCTGGAATGCGG (structured_DNA) [Annexin2-PQS2]: binds. GGGCAGGGCCAGGGGCGCTGGG (structured_DNA) [Annexin2-PQS5]: binds. GGACCTGCGGCTCCCTGGGCGG (structured_DNA) [Annexin2-PQS1]: binds. GGGGAGGCGGGGCGGGGCGGGG (structured_DNA) [Annexin2-PQS6]: binds.

These binders were tested against TNF-alpha (UniProt P01375 77-233) (assay: EMSA).
TNF-alpha, sequence (P01375 77-233): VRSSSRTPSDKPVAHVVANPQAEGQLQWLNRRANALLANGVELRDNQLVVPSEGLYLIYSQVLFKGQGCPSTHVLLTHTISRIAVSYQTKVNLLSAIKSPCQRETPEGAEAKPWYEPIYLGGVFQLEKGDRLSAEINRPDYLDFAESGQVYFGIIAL
GGGTTTGGGTTTGGGGGTAGGG (structured_DNA) [TNFa-PQS1]: no binding. GGGAGAGAGGGAGGGAGGTCGTTTGGG (structured_DNA) [TNFa-PQS4]: no binding. GGGTCCGAACAGGGACGATGGGGGTGGG (structured_DNA) [TNFa-PQS3]: no binding. GGGCATGGGGACGGGGTTCAGCCTCCAGGG (structured_DNA) [TNFa-PQS2]: no binding.
